Target: HLA-A2 molecules on the surface of human T2 cells (Homo sapiens, UniProt P04439, D140Y/D185E/D98H/E176V/E277Q/G131W/G231S/I119V/I121R/I166T/I218V/L300P/L318F/N151K/N90K/P208A/P217A/Q86G/Q94H/R138H/R169H/T345S)
Assay: Peptide stability assay (peptide/HLA-A2 binding stability post-Brefeldin A)

Sequence	HLA-A2 binding stability (CD138 peptide (FIG. 12), 0 hr, 2 hr, 4 hr, 6 hr, or overnight)	HLA-A2 binding stability (non-spliced XBP1 peptides (FIG. 2), 0, 2, 4, 6 and 18 hours post-Brefeldin A)
GLVGLIFAV (listed as Homo sapiens) [CD138 #2p, native CD138 peptide]	nearly equivalent to influenza virus protein matrix peptide58-66	
NISPWILAV (listed as Homo sapiens) [XBP1184-192, native non-spliced XBP1 peptide]		significantly lower level of HLA-A2 binding stability as compared to the influenza virus protein matrix peptide58-66

Source: patent US9096681B2, “XBP1, CD138, and CS1 peptides” (Dana-Farber Cancer Institute, Inc., priority 2008, dated 2015)
